Consider 1 substance from PMC12496174.

This test deals with BASP1 (brain acid soluble protein 1, CAP23, NAP22) (UniProt Q91XV3). Put plainly: peptide affinity column, brain lysate, LC-MS/MS. As to conditions: reference: non-phospho peptide …; sites S351.

Take “PLPPR3 (phospholipid-phosphatase-related protein 3) (from UniProt Q7TPB0) pS351 peptide LKRApSVDVDLLA”: the “binding against the reference” value is listed as “stronger”.
